{
  "source": "paper PMC6491520",
  "about": "“Antimicrobial Peptide LL-37 Facilitates Intracellular Uptake of RNA Aptamer Apt 21-2 Without Inducing an Inflammatory or Interferon Response”",
  "key": {"[1]": {"molecular_target": "T1, LL-37 (cathelicidin antimicrobial peptide) (UniProt P49913 134-170)", "T1 chain": "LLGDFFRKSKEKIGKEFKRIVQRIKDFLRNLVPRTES", "assay": "filter binding; apparent KD from 50% loss of free aptamer; 100 nM RNA; 1 h on ice, 100 nM aptamer, 0-100 uM LL-37; binding buffer not stated; EMSA loading with 60 mM KCl, 10 mM Tris pH 7.6, 40% glycerol; 7% native PAGE in TBE", "settings": "label: 5' 32P"}, "[2]": {"molecular_target": "T1, LL-37 (cathelicidin antimicrobial …)", "assay": "EMSA; apparent KD from 50% loss of free aptamer; 100 nM RNA; 1 h on ice, 100 nM aptamer, 0-100 uM LL-37; binding buffer not stated; EMSA loading with 60 mM KCl, 10 mM Tris pH 7.6, 40% glycerol; 7% native PAGE in TBE", "settings": "label: 5' 32P"}},
  "data": [
    {"binder": "GGUCUAGCCGGAGGAGUCAGUAAUCGGUAGACC (XNA, 2'-fluoro C and U)", "note": "[Apt 21-2]", "values": [
      {"measurement": "Kd", "setting": "[1]", "value": "~2000", "unit": "nM"},
      {"measurement": "Kd", "setting": "[2]", "value": "~2000", "unit": "nM"}
    ]}
  ]
}
